Experimental data as given in PMC11763338.

Biological target: recombinant human α-synuclein protein seeds (human) (UniProt P37840)

percent inhibition of aggregation of α-syn monomer seeded by m2, cell-free ThT fluorescence at 24 h; R18D 0.05-0.25 μM pre-incubated with the seeds: 62.1% | percent inhibition of intracellular α-syn aggregation in rat cortical neurons exposed to seeds (0.14 μM), HTRF aggregate assay at 48 h; R18D 0.0625-0.5 μM added 2 h after the seeds: 37.8%
Substance: R18D (18-mer of D-arginine) (peptide)
